Target: T1, extracellular domain of mouse AXL (mAXL-ECD; R&D) (mouse, UniProt Q00993 19-445)
T1 construct: extracellular domain; Bought protein
T1 sequence (looked up): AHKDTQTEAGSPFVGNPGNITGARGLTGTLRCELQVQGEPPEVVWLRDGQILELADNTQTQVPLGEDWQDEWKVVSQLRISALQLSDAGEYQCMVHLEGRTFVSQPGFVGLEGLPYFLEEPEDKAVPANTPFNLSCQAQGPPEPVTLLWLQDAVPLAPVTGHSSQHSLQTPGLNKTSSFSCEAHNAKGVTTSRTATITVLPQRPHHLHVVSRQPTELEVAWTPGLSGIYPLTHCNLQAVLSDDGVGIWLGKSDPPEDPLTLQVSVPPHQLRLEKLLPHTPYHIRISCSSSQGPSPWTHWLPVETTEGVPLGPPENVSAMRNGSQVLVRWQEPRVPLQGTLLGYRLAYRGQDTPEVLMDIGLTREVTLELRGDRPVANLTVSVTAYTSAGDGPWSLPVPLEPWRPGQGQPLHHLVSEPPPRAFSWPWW
Assay: ELISA, antibody at 3 µg/mL on coated mAXL-ECD
Experimental: After the extracellular domain of mouse AXL (hereinafter referred to as mAXL-ECD; R&D) was diluted with coating buffer (100 mM sodium bicarbonate buffer, pH 9.6) to 2 μg/mL, 100 μL was dispensed into a 96-well plate (Nunc-Immuno™ 96 MicroWell™ MaxiSorp™ plates; Nalge Nunc International). After the plate was placed in a refrigerator overnight, the antibody solution in the plate was removed, 200 μL/well of diluent buffer (BlockingOne; Nacalai Tesque) was dispensed, and then blocked for two hours at room temperature. After the removal of the diluent buffer, the anti-AXL antibody prepared above diluted to 3 μg/mL with diluent buffer was dispensed at 100 μL/well, and allowed to stand for 1.5 hours at room temperature. After the removal of the antibody solution, the wells were washed three times with tPBS(−). […] After the removal of the antibody solution, the wells were washed three times with tPBS(−). 100 μL/well of alkaline phosphatase chromogenic substrate solution (BluePhos Microwell Phosphatase Substrate System, Kirkegaad & Perry Laboratories) was dispensed, followed by color development at room temperature. The absorbance at 650 nm was then measured with a microplate reader (Emax, Molecular Devices).

B1: anti-AXL monoclonal antibody Ax225 (hybridoma AXL No. 225 #070402, Accession No. FERM BP-10854) (antibody, V domains shown)
VH: QVQLKQSGPGLVAPSQSLSITCTVSGLSLTSFGVDWVRQSPGKGLEWLGVIWGGGSTNYNSALKSRLSISKDNSKSQVFLKMNSLQTDDTAMYYCAGEGSKYGAWFAYWGQGTLVTVSS
VL: DVLMTQTPLSLPVSLGDQASISCRSSQNIVHTNGNTYLEWYLQKPGQSPELLIYKVSNRFSGVPDRFSGSGSGTDFTLKISRVEAEDLGVYYCFQGSHIPFTFGTGTKLEIK
notes: Mouse antibody from a hybridoma; Variable genes were amplified with constant region primers MHCg1 (H chain) and MLCk (L chain); also called AXL225 mouse antibody
B1: binds.

Reference: US20110044984A1 (Chugai, published 2011)
